The source of these data is patent US20250171534A1 (D2M BIOTHERAPEUTICS, published 2025).

A word on the EC50 (read off the curve): it is the concentration giving half of the maximal effect. As a reminder, the EC50 is the midpoint of the concentration-response curve. A low value points to higher potency in that assay.

For assay [1], the target named is T1, LILRB1-ECD-HIS (SinoBiological Cat #: 16014-H02H) (human, UniProt Q8NHL6 24-461).
T1 construct: Bought protein; also called monomeric antigen LILRB1-ECD-HIS; not shown: His tag
The assay is described as follows: BLI epitope binning (Gator).

The target in assay [2] is T2, human LILRB2 expressed on cells (human, UniProt Q8N423 22-597).
T2 construct: In 293T cells it was expressed from pCMV3-LILRB2-GFP; also called CHO-LILRB2; Jurkat-LILRB2
Nature of the assay: flow cytometry, CHO-LILRB2 cells. (In general: A flow cytometer gives signals particle by particle.)

Assay [3] addresses T2, human LILRB2 expressed on cells. The assay is described as follows: flow cytometry, CHO-LILRB2 cells. This is another data set of the same source.
Assay [4] has as its target T3, LILRB2-ECD-HIS (SinoBiological Cat #: 14132-H02H) (human, UniProt Q8N423 22-460).
T3 construct: Bought protein; also called monomeric antigen LILRB2-ECD-HIS; not shown: His tag
The assay is described as follows: BLI epitope binning (Gator), monomeric antigen.

For assay [5], the target named is T4, human LILRB1 expressed on cells (human, UniProt Q8NHL6 24-650).
T4 construct: In 293T cells it was expressed from pCMV3-LILRB1-GFP; also called CHO-LILRB1; Jurkat-LILRB1
Nature of the assay: flow cytometry on 293T cells transiently expressing LILRB1, APC anti-human Fc; gMFI as fold to IgG staining.

For assay [6], the target named is T5, LILRB3 expressed on cells (human, UniProt O75022 24-631).
T5 construct: whole, on cells; Expressed with a GFP tag from the bought plasmid; also called human LILRB3; CHO-LILRB3
Nature of the assay: flow cytometry on 293T cells transiently expressing LILRB3, APC anti-human Fc; gMFI as fold to IgG staining.

Assay [7] concerns the target T6, LILRB5 expressed on 293T cells (UniProt O75023 24-590, limits assumed).
T6 construct: whole, on cells; GFP-tagged, transient
Nature of the assay: flow cytometry on 293T cells transiently expressing LILRB5, APC anti-human Fc; gMFI as fold to IgG staining.

In assay [8] the target is T7, LILRA2 expressed on 293T cells (UniProt Q8N149 24-483, limits assumed).
T7 construct: whole, on cells; GFP-tagged, transient
The assay is described as follows: flow cytometry on 293T cells transiently expressing LILRA2, APC anti-human Fc; gMFI as fold to IgG staining.

The target in assay [9] is T8, LILRA3 expressed on 293T cells (UniProt Q8N6C8 24-439, limits assumed).
T8 construct: whole, on cells; GFP-tagged, transient
The assay is described as follows: flow cytometry on 293T cells transiently expressing LILRA3, APC anti-human Fc; gMFI as fold to IgG staining.

Assay [10] deals with T9, LILRA6 expressed on cells (human, UniProt Q6PI73 24-481).
T9 construct: whole, on cells; GFP-tagged; also called human LILRA6; CHO-LILRA6
The assay is described as follows: flow cytometry on 293T cells transiently expressing LILRA6, APC anti-human Fc; gMFI as fold to IgG staining.

The target of assay [11] is T10, LILRA5 expressed on 293T cells (UniProt A6NI73 42-299, limits assumed).
T10 construct: whole, on cells; GFP-tagged, transient
Nature of the assay: flow cytometry on 293T cells transiently expressing LILRA5, antibody 5 µg/mL, APC anti-human Fc; gMFI as fold to IgG staining.

T2 sequence (Q8N423 other isoform, or with tags, fused parts or gaps limits assumed): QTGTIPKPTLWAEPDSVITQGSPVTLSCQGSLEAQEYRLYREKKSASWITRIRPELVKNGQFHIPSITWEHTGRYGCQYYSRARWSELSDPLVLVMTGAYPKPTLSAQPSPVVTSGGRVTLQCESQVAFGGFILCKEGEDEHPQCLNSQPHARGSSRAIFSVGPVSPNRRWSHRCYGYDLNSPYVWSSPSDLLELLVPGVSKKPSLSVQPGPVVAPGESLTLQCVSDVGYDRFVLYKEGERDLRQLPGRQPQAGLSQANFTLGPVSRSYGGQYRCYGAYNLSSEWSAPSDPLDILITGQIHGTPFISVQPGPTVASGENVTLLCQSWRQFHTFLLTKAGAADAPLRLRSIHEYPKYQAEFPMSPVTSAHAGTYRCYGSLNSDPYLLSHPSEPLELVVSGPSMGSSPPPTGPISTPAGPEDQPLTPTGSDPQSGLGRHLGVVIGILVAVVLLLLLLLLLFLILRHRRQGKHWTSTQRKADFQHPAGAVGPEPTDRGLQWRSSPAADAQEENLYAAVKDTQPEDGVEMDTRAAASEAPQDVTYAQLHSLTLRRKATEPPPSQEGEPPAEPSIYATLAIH
T6 sequence (O75023 24-590 limits assumed): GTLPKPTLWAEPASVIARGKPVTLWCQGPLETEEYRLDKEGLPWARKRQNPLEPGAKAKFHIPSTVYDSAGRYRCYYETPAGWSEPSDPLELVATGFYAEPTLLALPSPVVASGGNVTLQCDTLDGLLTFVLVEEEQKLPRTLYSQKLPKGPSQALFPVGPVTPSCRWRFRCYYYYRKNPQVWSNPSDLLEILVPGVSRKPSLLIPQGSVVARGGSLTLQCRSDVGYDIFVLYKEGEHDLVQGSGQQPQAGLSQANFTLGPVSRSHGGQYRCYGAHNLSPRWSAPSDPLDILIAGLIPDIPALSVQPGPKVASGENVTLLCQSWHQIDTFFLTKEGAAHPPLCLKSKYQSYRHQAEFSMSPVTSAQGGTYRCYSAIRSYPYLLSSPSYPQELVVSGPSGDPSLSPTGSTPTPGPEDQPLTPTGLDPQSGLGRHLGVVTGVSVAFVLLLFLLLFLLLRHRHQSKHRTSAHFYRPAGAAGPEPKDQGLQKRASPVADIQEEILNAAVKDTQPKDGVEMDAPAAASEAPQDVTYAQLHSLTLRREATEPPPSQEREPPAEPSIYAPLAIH
T8 sequence (Q8N6C8 24-439 limits assumed): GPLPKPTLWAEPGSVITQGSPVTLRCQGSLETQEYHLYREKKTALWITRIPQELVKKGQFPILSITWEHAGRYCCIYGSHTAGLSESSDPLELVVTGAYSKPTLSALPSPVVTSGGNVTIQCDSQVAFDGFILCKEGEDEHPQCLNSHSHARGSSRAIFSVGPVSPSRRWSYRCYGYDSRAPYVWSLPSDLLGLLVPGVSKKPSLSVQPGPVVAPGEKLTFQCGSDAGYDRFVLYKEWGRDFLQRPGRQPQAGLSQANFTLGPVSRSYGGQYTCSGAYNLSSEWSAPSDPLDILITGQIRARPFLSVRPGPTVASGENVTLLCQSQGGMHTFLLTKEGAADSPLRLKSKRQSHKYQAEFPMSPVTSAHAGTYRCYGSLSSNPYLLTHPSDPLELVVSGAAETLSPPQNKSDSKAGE
T10 sequence (A6NI73 42-299 limits assumed): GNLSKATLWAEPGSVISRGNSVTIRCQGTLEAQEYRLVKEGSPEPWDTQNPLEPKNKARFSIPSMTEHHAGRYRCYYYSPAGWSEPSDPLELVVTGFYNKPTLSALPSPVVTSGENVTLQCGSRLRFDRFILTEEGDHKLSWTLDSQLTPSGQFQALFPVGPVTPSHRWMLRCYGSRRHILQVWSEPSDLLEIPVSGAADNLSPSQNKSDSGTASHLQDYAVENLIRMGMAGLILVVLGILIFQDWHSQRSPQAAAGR
T3 sequence (Q8N423 other isoform, or with tags, fused parts or gaps H02H H02H): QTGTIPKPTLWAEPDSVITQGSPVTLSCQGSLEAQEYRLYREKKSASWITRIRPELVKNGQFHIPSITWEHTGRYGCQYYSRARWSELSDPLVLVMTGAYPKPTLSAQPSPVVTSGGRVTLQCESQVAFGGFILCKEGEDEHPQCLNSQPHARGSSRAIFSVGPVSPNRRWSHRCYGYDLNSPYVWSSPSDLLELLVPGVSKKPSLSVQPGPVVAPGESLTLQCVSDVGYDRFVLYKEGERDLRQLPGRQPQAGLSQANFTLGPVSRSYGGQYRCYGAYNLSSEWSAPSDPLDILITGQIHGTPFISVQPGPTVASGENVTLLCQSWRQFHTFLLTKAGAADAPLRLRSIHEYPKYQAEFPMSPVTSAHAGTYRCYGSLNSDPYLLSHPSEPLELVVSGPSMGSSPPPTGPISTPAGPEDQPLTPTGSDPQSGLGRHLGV
T4 sequence (Q8NHL6 other isoform, or with tags, fused parts or gaps limits assumed): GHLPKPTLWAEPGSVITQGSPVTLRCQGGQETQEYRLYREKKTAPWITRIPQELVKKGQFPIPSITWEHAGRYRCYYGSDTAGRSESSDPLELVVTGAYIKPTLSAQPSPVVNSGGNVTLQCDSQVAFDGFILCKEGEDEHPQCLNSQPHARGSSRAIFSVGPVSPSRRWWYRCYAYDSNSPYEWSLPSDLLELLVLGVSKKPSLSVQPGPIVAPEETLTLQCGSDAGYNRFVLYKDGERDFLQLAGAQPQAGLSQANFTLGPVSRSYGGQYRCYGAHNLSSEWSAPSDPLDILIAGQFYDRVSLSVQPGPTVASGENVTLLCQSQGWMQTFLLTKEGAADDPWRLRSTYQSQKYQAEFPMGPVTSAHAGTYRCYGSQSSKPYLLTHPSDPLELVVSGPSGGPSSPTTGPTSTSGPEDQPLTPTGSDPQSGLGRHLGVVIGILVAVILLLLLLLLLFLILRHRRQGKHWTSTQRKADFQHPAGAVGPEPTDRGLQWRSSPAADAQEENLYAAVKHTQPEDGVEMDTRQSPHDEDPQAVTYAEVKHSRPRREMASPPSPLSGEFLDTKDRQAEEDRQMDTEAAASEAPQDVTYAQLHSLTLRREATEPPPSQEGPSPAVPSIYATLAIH
T1 sequence (Q8NHL6 other isoform, or with tags, fused parts or gaps H02H H02H): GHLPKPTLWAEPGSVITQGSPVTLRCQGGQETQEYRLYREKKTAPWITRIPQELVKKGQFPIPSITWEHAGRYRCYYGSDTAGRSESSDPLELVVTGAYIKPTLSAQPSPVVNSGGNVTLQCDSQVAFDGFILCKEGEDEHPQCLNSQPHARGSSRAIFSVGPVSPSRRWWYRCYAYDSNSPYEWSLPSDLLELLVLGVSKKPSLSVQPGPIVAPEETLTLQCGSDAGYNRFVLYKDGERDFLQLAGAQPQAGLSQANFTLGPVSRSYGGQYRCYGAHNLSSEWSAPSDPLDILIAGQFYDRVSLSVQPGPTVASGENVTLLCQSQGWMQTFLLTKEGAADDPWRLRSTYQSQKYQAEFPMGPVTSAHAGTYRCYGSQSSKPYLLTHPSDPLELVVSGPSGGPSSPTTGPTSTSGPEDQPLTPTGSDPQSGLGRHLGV
T9 sequence (Q6PI73 24-481): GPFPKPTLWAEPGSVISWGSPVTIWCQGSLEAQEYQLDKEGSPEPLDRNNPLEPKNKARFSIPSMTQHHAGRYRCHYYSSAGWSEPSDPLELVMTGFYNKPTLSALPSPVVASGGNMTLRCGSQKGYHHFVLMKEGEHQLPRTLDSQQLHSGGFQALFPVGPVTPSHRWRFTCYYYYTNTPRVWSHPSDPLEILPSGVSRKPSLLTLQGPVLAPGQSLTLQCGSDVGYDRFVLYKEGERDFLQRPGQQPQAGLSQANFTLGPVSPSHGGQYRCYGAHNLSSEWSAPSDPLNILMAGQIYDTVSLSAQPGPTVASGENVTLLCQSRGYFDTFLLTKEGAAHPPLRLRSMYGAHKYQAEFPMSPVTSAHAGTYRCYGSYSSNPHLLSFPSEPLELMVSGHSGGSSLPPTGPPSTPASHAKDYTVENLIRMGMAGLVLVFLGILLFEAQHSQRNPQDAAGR
T7 sequence (Q8N149 24-483 limits assumed): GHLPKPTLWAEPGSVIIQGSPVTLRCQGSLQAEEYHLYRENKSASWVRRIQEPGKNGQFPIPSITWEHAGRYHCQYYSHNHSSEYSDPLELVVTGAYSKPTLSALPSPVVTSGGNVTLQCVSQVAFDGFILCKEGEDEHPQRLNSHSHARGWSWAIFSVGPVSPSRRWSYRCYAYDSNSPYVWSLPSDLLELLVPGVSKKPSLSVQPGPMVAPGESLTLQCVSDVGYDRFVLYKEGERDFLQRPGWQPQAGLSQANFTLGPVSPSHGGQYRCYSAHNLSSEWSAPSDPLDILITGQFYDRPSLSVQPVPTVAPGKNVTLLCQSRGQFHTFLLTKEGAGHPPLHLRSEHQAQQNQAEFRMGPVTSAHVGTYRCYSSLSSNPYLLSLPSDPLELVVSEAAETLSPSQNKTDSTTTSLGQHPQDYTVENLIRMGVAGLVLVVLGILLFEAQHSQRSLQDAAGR

B1: Anti-LILRB2 antibody 1E1(QE) (antibody, human IgG4 S228P, lambda, V domains shown)
VH: EVQLQQWGAGLLKPSETLSLTCAVYGGSFSGYYWSWIRQPPGKGLEWIGEINHSGSTNYNPSLKSRVTISVDTSKNQFSLKLSSVTAADTAVYYCARLPTRWVTTRYFDLWGRGTLVTVSS
VL: ESVLTQPPSVSGAPGQRVTISCTGSSSNIGAGYDVHWYQQLPGTAPKLLIYGNSNRPSGVPDRFSVSKSGASASLAITGLQAEDEADYYCQSFDNSLSAYVFGGGTQLTVLG
As for B1, the binding result in assay [1] is given as “no binding”; in assay [4] it was “binds”; in assay [5], “no binding (tested: 5 µg/mL)”; in [6], “no binding (tested: 5 µg/mL)”; in assay [7], “no binding (tested: 5 µg/mL)”; in [8], “no binding (tested: 5 µg/mL)”. Further, the binding result in [9] is “no binding (tested: 5 µg/mL)”; in assay [10] it was “no binding (tested: 5 µg/mL)”; in [11], “binds”. Besides, in [2], the concentration for a half-maximal effect (EC50 (read off the curve)) was about 0.04 µg/mL. Also, in [3], a half-maximal effect (EC50) was put at 0.042 µg/mL. Moreover, the “gMFI (max)” value in assay [3] amounted to 11800.
